Several values for one entry are separate records, joined by “and”; a condition that tells them apart may be missing. Identical values can stand only once. *1 amine or outer side, *2 acyl side, *3 side chain or, on linkers, in order; H or OH if unused. Bridges are numbered along the chain shown (N, C = ends). Where no end group is shown, it is not given here. Lys(Aoa) = NOCC(=O)NCCCC[C@H](N[*:1])C(=O)[*:2]

The values below come from patent publication US20160200813A1 (AbbVie / Abbott, published 2016).

Experiment [1] has as its target T1, Cynomolgus monkey LRP-8 expressed on HEK293 cells (cynomolgus monkey).
T1 construct: whole, on cells; also called cyno LRP-8; cLRP-8
The experiment is described as follows: cell-based binding assay, cynoLRP8.

In experiment [2] the target is T2, Human LRP-8 (isoform 3) expressed on cells (human, UniProt Q14114 33-963).
T2 construct: also called hLRP-8; huLRP-8
The experiment is described as follows: cell-based MSD-ECL binding on cells overexpressing human LRP-8 variant 3 (hLRP8 assay). Here is the method:
(§1) A cell-based ECL-MSD binding assay was used to determine antibody affinity. HEK293 cells overexpressing human, monkey or mouse LRP-8 were added onto MSD 96-well plate (MSD Cat# L15XB-3/L11XB-3) and incubated at 37° C. for one hour. Cells were blocked using 15% FBS (Hyclone, Thermo Scientific Cat# SH300700.03) at RT for 30 minutes with mild agitation. Plates were washed with DPBS three times and Abs or DVD-Ig binding proteins were added to the well. After incubation at RT for one hour, plates were washed with DPBS and goat anti-human or anti-mouse Sulfo TAG (MSD Cat#R32AJ-1) was added. Plates were incubated at RT for one hour, washed with DPBS and immersed in MSD read buffer (MSD Cat#R92TD-2) before reading on a MSD SECTOR Imager 6000. EC50 values were obtained using Xlfit4 software system.

Experiment [3] deals with T2, Human LRP-8 (isoform 3) expressed on …. The experiment is described as follows: cell-based binding assay, hLRP8.
Experiment [4] concerns the target T1, Cynomolgus monkey LRP-8 expressed on …. Nature of the experiment: cell-based MSD-ECL binding on cells overexpressing cyno LRP-8 variant 1 (cynoLRP8 assay). Here is the method:
as §1

Experiment [5] has the same target. Nature of the experiment: cell-based MSD, 1 to 5, cyno-LRP8-HEK293.
The target is the same in experiment [6]. The experiment is described as follows: cell-based MSD, 1 to 25, cyno-LRP8-HEK293.
The target of experiment [7] is T2, Human LRP-8 (isoform 3) expressed on …. The experiment is described as follows: cell-based MSD, 1 to 5, human_LRP8_HEK293.
The target of experiment [8] is T1, Cynomolgus monkey LRP-8 expressed on …. The experiment is described as follows: cell-based binding on CYNO LRP8-HEK293, supernatant 1:25.
Experiment [9] concerns the target T2, Human LRP-8 (isoform 3) expressed on …. The experiment is described as follows: cell-based or functional assay.
Experiment [10] has as its target T1, Cynomolgus monkey LRP-8 expressed on …. Nature of the experiment: cell-based binding on CYNO LRP8-HEK293, supernatant 1:125.
Experiment [11] has as its target T2, Human LRP-8 (isoform 3) expressed on …. The experiment is described as follows: cell-based MSD, 1 to 125, human_LRP8_HEK293.
Experiment [12] concerns the target T1, Cynomolgus monkey LRP-8 expressed on …. Nature of the experiment: cell-based MSD, 1 to 125, cyno-LRP8-HEK293.
Experiment [13] has the same target. Nature of the experiment: cell-based binding on CYNO LRP8-HEK293, supernatant 1:5.
Experiment [14] addresses T2, Human LRP-8 (isoform 3) expressed on …. Nature of the experiment: cell-based MSD, 1 to 25, human_LRP8_HEK293.
The target of experiment [15] is T3, CR1 cyclic peptide of human LRP-8 (human, disulfide 1-13).
T3 construct: also called CR1 peptide; conjugated human LRP-8 CR1 peptide
T3 peptide: CEKDQFQSRNERCIPSVWR-{Lys(Aoa)-NH2}
Nature of the experiment: ELISA using CR1 peptide.

Experiment [16] deals with T1, Cynomolgus monkey LRP-8 expressed on …. The experiment is described as follows: FACS, cyno LRP8 cells.
Experiment [17] addresses T2, Human LRP-8 (isoform 3) expressed on …. The experiment is described as follows: cell-based or functional assay. The source holds these as a separate data set.
Experiment [18] shares this target. The experiment is described as follows: cell-based ECL-MSD, 10 ug/ml Ab, human_LRP-8_HEK293. Here is the method:
as §1

Experiment [19] deals with T1, Cynomolgus monkey LRP-8 expressed on …. Nature of the experiment: cell-based ECL-MSD, 10 ug/ml Ab, cyno-LRP-8-HEK293. As for the experimental part:
as §1

Experiment [20] addresses T2, Human LRP-8 (isoform 3) expressed on …. Nature of the experiment: huLRP-8 cell-based binding.
In experiment [21] the target is T4, CR1.3 variant cyclic peptide (human, disulfide 1-13).
T4 peptide: H-CEKDQFQSRAERCIPSVWR-{Lys(Aoa)-NH2}
Nature of the experiment: ELISA, antibody titrated on coated CR1.3 peptide. Here is the method: (§2) High binding MSD plates (MSD Cat# L15XB-3/L11XB-3) were coated with 1 μg/ml of CR1 or CR2 peptide overnight at 4° C. The next day, the plate was blocked with 3% MSD blocking buffer (MSD Cat# R93AA-01) for 1 hour at RT. The plates were washed with TTBS buffer (20 mM Tris; 0.5% Tween, 150 mM sodium chloride; pH 7.5) three times and a titer of anti-LRP-8 human Fc Ab was added. After incubating for 1 hour at RT, plate was washed and anti-human SULFO-TAG Ab was added to the plate and incubated for 1 hour. The plates were washed and immersed in MSD read buffer T with surfactant (MSD Cat# R92TC-1) before reading on an MSD SECTOR Imager 6000. Data were obtained and analyzed using a GraphPad Prism 6 software package (GraphPad Software, Inc., La Jolla, Calif.).

For experiment [22], the target named is T5, CR2 cyclic peptide of human LRP-8 (human, disulfide 1-13).
T5 construct: also called CR2 peptide; conjugated human LRP-8 CR2 peptide
T5 peptide: CADSDFTSDNGHCIHERWK-{Lys(Aoa)-NH2}
The experiment is described as follows: antibody titrated on plates coated with 1 ug/ml CR2 peptide (Example 1.12.2); lower table, column ng/ml. As for the experimental part: as §2

The target of experiment [23] is T3, CR1 cyclic peptide of human LRP-8. Nature of the experiment: antibody titrated on plates coated with 1 ug/ml CR1 peptide (Example 1.12.2); lower table, column ng/ml. As for the experimental part:
as §2

Experiment [24] addresses T6, CR1.1 variant cyclic peptide (human, disulfide 1-13).
T6 peptide: H-CEKDQAQSRNERCIPSVWR-{Lys(Aoa)-NH2}
The experiment is described as follows: ELISA, antibody titrated on coated CR1.1 peptide. Here is the method:
as §2

Experiment [25] addresses T7, CR1.2 variant cyclic peptide (human, disulfide 1-13).
T7 peptide: H-CEKDQFQARNERCIPSVWR-{Lys(Aoa)-NH2}
Nature of the experiment: ELISA, antibody titrated on coated CR1.2 peptide. Here is the method: as §2

For experiment [26], the target named is T8, CR1.4 variant cyclic peptide (human, disulfide 1-13).
T8 peptide: H-CEKDQAQARAERCIPSVWR-{Lys(Aoa)-NH2}
The experiment is described as follows: BIACORE and direct ELISA.

T2 sequence (Q14114 other isoform, or with tags, fused parts or gaps limits assumed): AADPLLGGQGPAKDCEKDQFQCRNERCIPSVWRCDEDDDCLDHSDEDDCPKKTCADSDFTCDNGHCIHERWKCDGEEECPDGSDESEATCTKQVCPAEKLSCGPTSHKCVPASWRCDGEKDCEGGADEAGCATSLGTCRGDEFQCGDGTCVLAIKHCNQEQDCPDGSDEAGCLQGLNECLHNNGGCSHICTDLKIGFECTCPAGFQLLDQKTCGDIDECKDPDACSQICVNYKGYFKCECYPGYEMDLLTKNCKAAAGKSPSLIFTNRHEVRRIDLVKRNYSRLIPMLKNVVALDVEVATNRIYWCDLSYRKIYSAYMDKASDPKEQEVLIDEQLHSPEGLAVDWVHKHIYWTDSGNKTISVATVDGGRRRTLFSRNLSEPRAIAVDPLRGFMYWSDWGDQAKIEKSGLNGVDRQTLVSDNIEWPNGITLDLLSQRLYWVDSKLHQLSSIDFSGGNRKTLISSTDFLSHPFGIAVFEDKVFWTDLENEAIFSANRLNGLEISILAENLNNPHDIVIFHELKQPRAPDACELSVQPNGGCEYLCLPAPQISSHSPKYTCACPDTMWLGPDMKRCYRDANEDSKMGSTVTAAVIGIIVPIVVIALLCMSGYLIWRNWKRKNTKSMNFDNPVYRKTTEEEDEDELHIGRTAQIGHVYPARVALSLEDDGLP

B1: anti-LRP-8 BGK-2C8.8C antibody (antibody, V domains shown)
VH: EVQLVESGGGLVQPGRSLKLSCAASGFTVSDYYMAWVRQAPKKGLEWVASISYEGSSTYYGDSVKGRFTISRDNAKSILYLQMNSLRSEDTATYYCARPLRYYGYNYRFAYWGQGTLVTVSS
VL: DIQMSQSPPVLSASVGDRVTLSCKASQNIHKNLDWYQQKHGEAPKLLIYYTDNLQTGIPSRFSGSGSGTDYTLTISSLQPEDVATYYCYQYNSGPTFGAGTKLELQ
As to B1, the 50% effective concentration (EC50) in experiment [1] was 0.82 nM; in [2] it was 0.55 µg/mL and 2.75 nM; in experiment [3], 2.62 nM; in [4] it was 0.0881 µg/mL and 0.44 nM.

B2: BGK-7F7 (GENOVAC candidate clone of Table 17) (antibody, V domains shown)
VH: QVTLKESGPGILQPSQTLSLTCTFSGFSLSTYGLGVGWIRQPSGKGLEWLANIWWDDAKYYNPSLKNRLTISKDTSNNQAFLKIPNVDTADTARYYCARTTKPYYFDYWGQGVMVTVSS
VL: HFVLAQPNSVSTNLGSTVKLSCKRSTANIGSNYVNWYQQHEGRSPTTLIYRDDRRPDGVPDRFSGSIDRSSNSALLTINNVQTEDEADYFCQSYSSGINIFGGGTKLTVL
notes: here the candidate from rat immunization before chimerization, tested at dilutions
Regarding B2, the “fold over IgG control” value was determined as 2 fold in experiment [5]; 1.9 fold in [6]; 5 fold in [7]; 5 fold in experiment [11]; 1.8 fold in experiment [12]; 5.2 fold in experiment [14]. Besides, the “fold over isotype control” value in [8] worked out at 1.86 fold; in experiment [10], 1.5 fold; in experiment [13] it was 3.23 fold. In addition, in experiment [9], the “Endocytosis, fold over-IgG” value amounted to 5.18 fold. For the same molecule, the “Transcytosis, fold over-IgG” value in experiment [9] worked out at 2.17 fold.

B3: anti-LRP-8 antibody CL-135325 (antibody, V domains shown)
VH: EVQLVQSGGGLVQPGGSLRLSCAASGFTFSIYAMSWVRQAPGKGLEWVSVISCSAGSTYYADSVKGRFTISRDNSKNTLYLQMNSLRAEDTAVYYCARHSVHEEFPFDVWGQGTLVTVSS
VL: DIQMTQSPSSLSASVGDRVTITCRASQSIGSYLNWYQQKPGKAPKLLIYAASSLQSGVPSRFSGSGSGTDFTLTISSLQPEDFATYYCQQSYIPPLTFGGGTKVEIK
In [15], B3 registered an OD450 of 0.17 OD450. In [16], the “FACS (ratio +/-)” value is 16.5 ratio.

B4: anti-LRP-8 antibody CL-135359 (antibody, V domains shown)
VH: EVQLVQSGGGLVQPGGSLRLSCAASGFTFSSYAMSWVRQAPGKGLEWVSVISCSGGTTYYADSVKGRFTISRDNSKNTLYLQMNSLRAEDTAVYYCARNGGQFDLWGQGTLVTVSS
VL: DIQMTQSPSSLSASVGDRVTITCRASQGICTYLNWYQQKPGKAPKLLIYAASSLQSGVPSRFSGSGSGTDFTLTISSLQPEDFATYYCQQSYNPPLTFGGGTKVEIK
In experiment [15], B4 came in with an OD450 of 0.1 OD450. Moreover, the “FACS (ratio +/-)” value in experiment [16] is 12.6 ratio.

B5: anti-LRP-8 ML199-11H1.5B2 murine antibody (muFc) (antibody, V domains shown)
VH: EVQLVESGGDLVKPGGSLKLSCAASRFTFSNYGMSWVRQTPDKRLEWVATISSGGRYTYYPDSVKGRFTISRDNAKNTLYLQMSSLRSEDTAMYYCARDYLYAMDYWGQGTSVTVSS
VL: DVVMTQTPLSLPVSLGDQASISCRSSQSLVYSNGNTYLHWYLQKPGQSPKVLMYKVSNRFSGVSDRFSGSGSGTDFTLKISRVEAEDLGVYFCSQSTHVPLTFGAGTKLELK
notes: Mouse Fc form (muFc); also called ML199-11H1-5B2 muFc; anti-LRP-8,11H1.5B2
For B5, in [17], the “Endocytosis, fold over IgG control” value is 1.7 fold and the “Transcytosis, fold over IgG control” value came to 2 fold. Moreover, the “fold over mIgG control” value in experiment [18] stood at 15.1 fold. Also, the “fold over mIgG control” value in [19] is 7 fold. For the same molecule, the response in experiment [20] was half-maximal at 0.4 nM (EC50).

B6: chimeric anti-LRP-8 ML199.11H1.5B2 antibody [mu/hu IgG1/k] LALA (antibody, V domains shown)
VH: EVQLVESGGDLVKPGGSLKLSCAASRFTFSNYGMSWVRQTPDKRLEWVATISSGGRYTYYPDSVKGRFTISRDNAKNTLYLQMSSLRSEDTAMYYCARDYLYAMDYWGQGTSVTVSS
VL: DVVMTQTPLSLPVSLGDQASISCRSSQSLVYSNGNTYLHWYLQKPGQSPKVLMYKVSNRFSGVSDRFSGSGSGTDFTLKISRVEAEDLGVYFCSQSTHVPLTFGAGTKLELK
notes: Mouse variable domains on human IgG1/kappa with L234A, L235A (LALA); also called ML199.11H1.5B2 hFc; ML199.11H1.5B2 mu/hu IgG1 m/k
For B6, the EC50 is 0.21 nM in experiment [1]; 0.0484 µg/mL and 0.32 nM in [2]; 0.22 nM in [3]; 0.312 µg/mL in experiment [22]; 0.225 µg/mL in [23]; 0.0691 µg/mL and 0.46 nM in experiment [4]. The OD450 in experiment [15] turned out to be 4 OD450. The binding result in experiment [21] is given as “binds”; in experiment [24] it was “no binding (tested: 10000 ng/ml)”; in experiment [25], “binds”; in experiment [26] it was “no binding”. The “FACS (ratio +/-)” value in experiment [16] turned out to be 141 ratio.
